Where a chain is given by its changes, count along the chain named.
T1: Cas-alpha 10 wild type (Cas12f) (Syntrophomonas palmitatica, UniProt P0DW62 SEQ:1-497)
T1 sequence: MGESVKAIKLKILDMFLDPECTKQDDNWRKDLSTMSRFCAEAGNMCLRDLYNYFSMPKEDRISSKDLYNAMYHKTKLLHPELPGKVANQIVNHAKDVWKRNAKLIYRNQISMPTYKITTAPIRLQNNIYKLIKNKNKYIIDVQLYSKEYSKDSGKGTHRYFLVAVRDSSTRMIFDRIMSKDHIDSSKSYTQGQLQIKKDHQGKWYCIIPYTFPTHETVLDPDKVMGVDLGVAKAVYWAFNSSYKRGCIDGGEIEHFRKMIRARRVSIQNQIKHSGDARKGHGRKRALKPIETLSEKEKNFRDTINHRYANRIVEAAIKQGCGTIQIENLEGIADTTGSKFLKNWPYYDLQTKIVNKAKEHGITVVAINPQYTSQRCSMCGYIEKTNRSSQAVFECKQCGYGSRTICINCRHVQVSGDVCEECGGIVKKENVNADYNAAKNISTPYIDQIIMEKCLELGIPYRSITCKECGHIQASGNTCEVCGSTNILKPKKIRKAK

T2: Cas-alpha 10 variant G81E (synthetic construct, UniProt P0DW62 SEQ:1-497)
T2 chain: T1 sequence

T3: Cas-alpha 10 base variant (synthetic construct, UniProt P0DW62 SEQ:1-497)
T3 chain: T1 sequence with A40G, E81G, A87K, T190K, T217H, K298S, H306F, T335R, I405N

T4: Cas-alpha 10 variant M45S+F54D+G81E+K85Q+G470D (synthetic construct, UniProt P0DW62 SEQ:1-497)
T4 chain: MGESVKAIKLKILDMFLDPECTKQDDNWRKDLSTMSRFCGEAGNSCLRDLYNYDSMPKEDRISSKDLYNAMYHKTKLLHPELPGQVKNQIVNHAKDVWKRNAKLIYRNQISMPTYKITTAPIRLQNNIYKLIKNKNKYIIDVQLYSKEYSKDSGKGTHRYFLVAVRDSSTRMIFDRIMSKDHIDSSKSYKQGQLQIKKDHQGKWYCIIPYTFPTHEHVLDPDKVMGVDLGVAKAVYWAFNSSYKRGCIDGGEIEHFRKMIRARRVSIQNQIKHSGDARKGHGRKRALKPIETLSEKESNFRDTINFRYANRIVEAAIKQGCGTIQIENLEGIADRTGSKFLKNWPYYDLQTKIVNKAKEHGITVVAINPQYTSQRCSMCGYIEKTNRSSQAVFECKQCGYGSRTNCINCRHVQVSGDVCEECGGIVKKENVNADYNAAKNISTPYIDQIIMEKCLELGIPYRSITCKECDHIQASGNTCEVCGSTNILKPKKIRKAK

T5: Cas-alpha 10 variant M45S+F54D+G81E+G470D (synthetic construct, UniProt P0DW62 SEQ:1-497)
T5 chain: T4 chain with Q85K

T6: Cas-alpha 10 variant T34E+M45S+F54D+G81E+G470D (synthetic construct, UniProt P0DW62 SEQ:1-497)
T6 chain: T4 chain with T34E, Q85K

T7: Cas-alpha 10 variant T34E+M45S+F54D+G81E+K85Q+G470D (synthetic construct, UniProt P0DW62 SEQ:1-497)
T7 chain: T4 chain with T34E

B1: sgRNA MS26 (recognition domain SEQ 327) ; MS26 target (ssRNA ; dsDNA)
RNA: GUUUCGCGCGCCAGGGCAGUUAGGUGCCCUAAAAGAGCGAAGUGGCCGAAAGGAAAGGCUAACGCUUCUCUAACGCUACGGCGACCUUGGCGAAAUGCCAUCAAUACCACGCGGCCCGAAAGGGUUCGCGCGAAACGAAAUAAGCGCGUGGAUUGAAACAAGUUCACGGCGUUCCAGGC
DNA 1: GTTCAAGTTCACGGCGTTCCAGGC
DNA 2: GCCTGGAACGCCGTGAACTTGAAC
B2: sgRNA ADE2-CR1 ; ADE2-CR1 target (ssRNA ; dsDNA)
RNA: AUUUACUCUGUUUCGCGCGCCAGGGCAGUUAGGUGCCCUAAAAGAGCGAAGUGGCCGAAAGGAAAGGCUAACGCUUCUCUAACGCUACGGCGACCUUGGCGAAAUGCCAUCAAUACCACGCGGCCCGAAAGGGUUCGCGCGAAACUGAGUAAUGAAAGUCGCAUCUUGCGUAAGCGCGUGGAUUGAAACCUACACUAAAGAAUCUUCAA
DNA 1: GTTCCTACACTAAAGAATCTTCAA
DNA 2: TTGAAGATTCTTTAGTGTAGGAAC

Tests used:
[1] = target: T1, Cas-alpha 10 wild type (Cas12f); test: cell_activity; PAM GTTC; maize, 3x4 hr 45 C; settings: tags: SV40 NLS; chain copies: 2
Procedure: (§1) The resulting T-DNA was then placed into LBA4404, a thymine auxotrophic strain of Agrobacterium tumefaciens, containing Vir9, a separate plasmid encoding the Bo542 virulence genes (US20170121722A1 and WO 2017/078836). The resulting Agrobacterium strain was then used to transform nine-to-ten-day old immature maize embryos (approximately 2 mm in size) by submersion in 700A liquid media containing the strain at an optical density (OD) of 0.4 to 2.0 at 550 nm for 5 min. and then removed from the media and placed on solid co-cultivation medium overnight at 21° C. in the dark. Following T-DNA delivery, embryos are transferred to resting media, 13266R, and grown in the dark at 28° C. for 5-7 days. Next, coleoptiles were removed, and embryos transferred to selection media for 11-16 days and kept in the dark at 28° C. They were then moved to maturation media and incubated for 14-25 days in the dark at 28° C. and then subject to light for 2-5 days. Next, they were moved to rooting media and incubated at 26-28° C. under light for 14-28 days refreshing media as needed. To examine Cas-alpha nuclease-guide RNA activity, transformed tissue was incubated at 28° C., standard for Agrobacterium transformation, or at a range of temperatures lower or higher than 28° C.
(§2) In a third study, the efficiency of targeted mutagenesis of Cas-alpha 10 endonuclease variants, SEQ ID NOs:14, 48, 60, and 157, were compared when tested with two sgRNA recognition domains, SEQ ID NOs:61 and 327, at two target sites, MS26 and D8. Experiments were carried-out in Zea mays using Agrobacterium (Agro) transformation as described in Example 2. Two temperature regimens were performed. The first subjected Agro transformed embryos (once per day) to 45° C. for 4 hrs on days 3, 4, and 5 (3×4 hr 45° C.) after infection and the second to a continuous incubation at 37° C. on days 1-3 (1-3d 37° C.) following infection. For both regimens, embryos were placed at 28° C. before and after temperature treatment. […]

[2] = target: T2, Cas-alpha 10 variant G81E; test: cell_activity; PAM GTTC; maize, 3x4 hr 45 C; settings: tags: SV40 NLS; chain copies: 2
Procedure: as §1, §2

[3] = target: T3, Cas-alpha 10 base variant; test: cell_activity; PAM GTTC; 37 C overnight; settings: tags: SV40 NLS; chain copies: 2
Procedure: (§3) K85Q was also predicted with AlphaFold to be involved in PAM recognition. Therefore, it was converted back to a K residue for M45S+F54D+G81E+K85Q+G470D (SEQ ID NO: 50) and T34E+M45S+F54D+G81E+K85Q+G470D (SEQ ID NO: 54) and re-tested using two ADE2 target sites. Testing was performed as described above and fold improvement in targeted DNA cleavage was calculated as described above, relative to the original protein.

[4] = target: T4, Cas-alpha 10 variant …; test: cell_activity; PAM GTTC; 37 C overnight; settings: tags: SV40 NLS; chain copies: 2
Procedure: as §3

[5] = target: T5, Cas-alpha 10 variant …; test: cell_activity; PAM GTTC; 37 C overnight; settings: tags: SV40 NLS
Procedure: as §3

[6] = target: T6, Cas-alpha 10 variant …; test: cell_activity; PAM GTTC; 37 C overnight; settings: tags: SV40 NLS; chain copies: 2
Procedure: as §3

[7] = target: T7, Cas-alpha 10 variant …; test: cell_activity; PAM GTTC; 37 C overnight; settings: tags: SV40 NLS; chain copies: 2
Procedure: as §3

Binder | activity [1] | activity [2] | activity [3] | activity [4] | activity [5] | activity [6] | activity [7]
B1 | 4.67 % targeted mutagenesis | 15.5 % targeted mutagenesis |  |  |  |  | 
B2 |  |  | 2.76 % red yeast | 5.19 % red yeast | 45.4 % red yeast | 64.5 % red yeast | 7.48 % red yeast
